According to the supplement of paper PMC10065799, “High-throughput profiling of sequence recognition by tyrosine kinases and SH2 domains using bacterial peptide display” (eLife, 2023):

Columns and labels:
Grb2 SH2 = Grb2 SH2 (UniProt P62993); experiment: SH2 binding enrichment of the phosphorylated peptide, bacterial display (enrichment ratio); higher = better substrate or ligand; peptides without Tyr show the background
SHP2-C SH2 = experiment: as above
c-Src SH2 = experiment: as above
Hck = Hck (UniProt P08631); experiment: phosphorylation enrichment, bacterial display (enrichment ratio); higher = better substrate or ligand; peptides without Tyr show the background
c-Src = experiment: as above
Jak2 = Jak2 (UniProt O60674); experiment: as above
EPHB1 = EPHB1 (UniProt P54762); experiment: as above
Fes = Fes (UniProt P07332); experiment: as above
Fyn = Fyn (UniProt P06241); experiment: as above
EPHB2 = EPHB2 (UniProt P29323); experiment: as above
FGFR1 = FGFR1 (UniProt P11362); experiment: as above
AncSZ = experiment: as above
MERTK = MERTK (UniProt Q12866); experiment: as above
FGFR3 = FGFR3 (UniProt P22607); experiment: as above
Fer (mouse) = experiment: as above
c-Abl (mouse) = experiment: as above
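Throughout, for SH2 binding enrichment of the phosphorylated peptide, bacterial display: peptide library displayed on the E. coli surface as eCPX fusions, selected cells deep-sequenced, score is each peptide's frequency after selection divided by its frequency in the input.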
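Throughout, for phosphorylation enrichment, bacterial display: 11-residue human phosphosite peptides and single-mutation variants displayed on the E. coli surface, counted by deep sequencing, each peptide's frequency after selection divided by its frequency in the unselected input library; frequency after pTyr selection over input frequency; kinase dosed for 20-30% of maximal phosphorylation in three min.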

Hck, sequence (P08631 whole entry, looked up): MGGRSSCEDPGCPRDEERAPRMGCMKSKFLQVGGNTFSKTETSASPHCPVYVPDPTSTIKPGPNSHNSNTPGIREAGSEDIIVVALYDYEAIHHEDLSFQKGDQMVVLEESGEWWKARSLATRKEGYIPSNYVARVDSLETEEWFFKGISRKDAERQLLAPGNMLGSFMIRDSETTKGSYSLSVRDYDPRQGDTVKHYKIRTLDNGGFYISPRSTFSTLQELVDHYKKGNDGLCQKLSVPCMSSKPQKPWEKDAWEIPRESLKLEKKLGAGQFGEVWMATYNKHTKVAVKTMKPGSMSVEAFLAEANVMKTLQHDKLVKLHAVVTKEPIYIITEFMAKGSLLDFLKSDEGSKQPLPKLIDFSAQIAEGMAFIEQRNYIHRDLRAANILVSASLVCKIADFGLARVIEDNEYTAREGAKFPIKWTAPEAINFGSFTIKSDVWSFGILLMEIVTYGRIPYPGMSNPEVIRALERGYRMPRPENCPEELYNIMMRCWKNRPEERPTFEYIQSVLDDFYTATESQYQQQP
FGFR3, sequence (P22607 whole entry, looked up): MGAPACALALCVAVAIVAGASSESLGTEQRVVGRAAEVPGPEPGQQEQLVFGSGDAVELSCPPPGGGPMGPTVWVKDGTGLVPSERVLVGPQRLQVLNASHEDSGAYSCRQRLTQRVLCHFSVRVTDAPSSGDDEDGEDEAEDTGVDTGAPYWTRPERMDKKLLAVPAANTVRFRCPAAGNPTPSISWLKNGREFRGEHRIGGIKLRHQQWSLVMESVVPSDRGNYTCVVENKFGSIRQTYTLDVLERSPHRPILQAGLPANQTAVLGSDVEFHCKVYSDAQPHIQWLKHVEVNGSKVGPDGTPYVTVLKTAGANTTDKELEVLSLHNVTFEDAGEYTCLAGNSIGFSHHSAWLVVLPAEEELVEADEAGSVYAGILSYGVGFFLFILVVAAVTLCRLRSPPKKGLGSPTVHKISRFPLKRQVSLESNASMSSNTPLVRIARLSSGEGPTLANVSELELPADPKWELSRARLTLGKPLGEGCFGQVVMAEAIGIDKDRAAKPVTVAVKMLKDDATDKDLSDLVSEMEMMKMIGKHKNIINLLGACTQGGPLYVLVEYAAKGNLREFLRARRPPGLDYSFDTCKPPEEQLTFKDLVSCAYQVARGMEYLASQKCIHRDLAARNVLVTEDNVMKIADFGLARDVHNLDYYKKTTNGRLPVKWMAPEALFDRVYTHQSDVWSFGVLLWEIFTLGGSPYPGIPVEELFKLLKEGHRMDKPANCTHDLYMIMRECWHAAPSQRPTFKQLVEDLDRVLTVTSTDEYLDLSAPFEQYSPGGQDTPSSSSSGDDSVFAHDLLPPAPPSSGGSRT
FGFR1, sequence (P11362 whole entry, looked up): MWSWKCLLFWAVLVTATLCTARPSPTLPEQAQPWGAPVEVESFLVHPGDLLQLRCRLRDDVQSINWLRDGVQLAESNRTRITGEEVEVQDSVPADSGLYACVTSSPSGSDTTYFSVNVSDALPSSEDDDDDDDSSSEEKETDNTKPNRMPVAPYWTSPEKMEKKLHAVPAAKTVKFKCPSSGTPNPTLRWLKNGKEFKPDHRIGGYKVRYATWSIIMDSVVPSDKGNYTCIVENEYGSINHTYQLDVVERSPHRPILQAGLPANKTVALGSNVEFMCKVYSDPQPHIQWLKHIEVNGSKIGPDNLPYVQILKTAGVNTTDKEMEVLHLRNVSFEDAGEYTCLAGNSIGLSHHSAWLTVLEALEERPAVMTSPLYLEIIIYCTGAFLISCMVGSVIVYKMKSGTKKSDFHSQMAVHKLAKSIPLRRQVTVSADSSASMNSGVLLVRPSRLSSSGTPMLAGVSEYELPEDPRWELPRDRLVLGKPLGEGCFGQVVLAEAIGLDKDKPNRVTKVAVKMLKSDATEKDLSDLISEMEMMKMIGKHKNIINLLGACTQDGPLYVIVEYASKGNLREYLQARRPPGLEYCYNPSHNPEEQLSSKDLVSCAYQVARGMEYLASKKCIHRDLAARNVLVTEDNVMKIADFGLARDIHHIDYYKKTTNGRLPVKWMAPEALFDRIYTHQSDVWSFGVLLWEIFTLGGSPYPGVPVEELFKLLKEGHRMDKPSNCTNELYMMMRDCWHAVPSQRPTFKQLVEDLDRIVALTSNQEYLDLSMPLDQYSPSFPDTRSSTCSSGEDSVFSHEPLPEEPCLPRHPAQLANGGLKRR
EPHB1, sequence (P54762 whole entry, looked up): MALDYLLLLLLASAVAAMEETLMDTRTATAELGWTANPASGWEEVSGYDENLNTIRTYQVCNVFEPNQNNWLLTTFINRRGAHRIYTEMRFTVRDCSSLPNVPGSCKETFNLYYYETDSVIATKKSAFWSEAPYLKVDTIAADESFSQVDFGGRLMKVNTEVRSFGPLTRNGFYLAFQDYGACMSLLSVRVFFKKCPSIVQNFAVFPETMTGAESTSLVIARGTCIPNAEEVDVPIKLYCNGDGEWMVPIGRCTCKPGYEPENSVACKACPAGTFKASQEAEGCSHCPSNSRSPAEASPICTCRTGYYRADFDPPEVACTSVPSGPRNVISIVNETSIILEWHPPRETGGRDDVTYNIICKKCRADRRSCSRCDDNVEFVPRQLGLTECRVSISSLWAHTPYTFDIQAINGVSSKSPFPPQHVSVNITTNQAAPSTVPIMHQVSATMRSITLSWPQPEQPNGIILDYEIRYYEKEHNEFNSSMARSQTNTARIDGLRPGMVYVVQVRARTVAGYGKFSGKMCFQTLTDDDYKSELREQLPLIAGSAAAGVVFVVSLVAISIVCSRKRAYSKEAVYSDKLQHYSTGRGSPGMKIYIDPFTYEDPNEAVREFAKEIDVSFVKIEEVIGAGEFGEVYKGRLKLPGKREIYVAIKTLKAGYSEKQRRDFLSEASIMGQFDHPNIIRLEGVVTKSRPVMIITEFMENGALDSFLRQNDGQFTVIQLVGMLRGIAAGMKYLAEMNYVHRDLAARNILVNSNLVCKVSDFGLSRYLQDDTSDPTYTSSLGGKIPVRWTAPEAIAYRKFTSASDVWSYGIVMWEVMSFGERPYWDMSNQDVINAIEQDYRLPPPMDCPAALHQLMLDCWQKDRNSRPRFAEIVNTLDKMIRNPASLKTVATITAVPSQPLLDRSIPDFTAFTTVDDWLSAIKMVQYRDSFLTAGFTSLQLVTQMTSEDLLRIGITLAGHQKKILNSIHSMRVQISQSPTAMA
Grb2 SH2, sequence (P62993 whole entry, looked up): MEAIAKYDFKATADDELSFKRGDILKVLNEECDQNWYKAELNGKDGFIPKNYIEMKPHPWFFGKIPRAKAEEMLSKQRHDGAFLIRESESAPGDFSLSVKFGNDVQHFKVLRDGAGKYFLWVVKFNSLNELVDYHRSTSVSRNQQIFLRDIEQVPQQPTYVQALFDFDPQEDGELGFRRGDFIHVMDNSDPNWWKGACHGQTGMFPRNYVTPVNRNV
Fes, sequence (P07332 whole entry, looked up): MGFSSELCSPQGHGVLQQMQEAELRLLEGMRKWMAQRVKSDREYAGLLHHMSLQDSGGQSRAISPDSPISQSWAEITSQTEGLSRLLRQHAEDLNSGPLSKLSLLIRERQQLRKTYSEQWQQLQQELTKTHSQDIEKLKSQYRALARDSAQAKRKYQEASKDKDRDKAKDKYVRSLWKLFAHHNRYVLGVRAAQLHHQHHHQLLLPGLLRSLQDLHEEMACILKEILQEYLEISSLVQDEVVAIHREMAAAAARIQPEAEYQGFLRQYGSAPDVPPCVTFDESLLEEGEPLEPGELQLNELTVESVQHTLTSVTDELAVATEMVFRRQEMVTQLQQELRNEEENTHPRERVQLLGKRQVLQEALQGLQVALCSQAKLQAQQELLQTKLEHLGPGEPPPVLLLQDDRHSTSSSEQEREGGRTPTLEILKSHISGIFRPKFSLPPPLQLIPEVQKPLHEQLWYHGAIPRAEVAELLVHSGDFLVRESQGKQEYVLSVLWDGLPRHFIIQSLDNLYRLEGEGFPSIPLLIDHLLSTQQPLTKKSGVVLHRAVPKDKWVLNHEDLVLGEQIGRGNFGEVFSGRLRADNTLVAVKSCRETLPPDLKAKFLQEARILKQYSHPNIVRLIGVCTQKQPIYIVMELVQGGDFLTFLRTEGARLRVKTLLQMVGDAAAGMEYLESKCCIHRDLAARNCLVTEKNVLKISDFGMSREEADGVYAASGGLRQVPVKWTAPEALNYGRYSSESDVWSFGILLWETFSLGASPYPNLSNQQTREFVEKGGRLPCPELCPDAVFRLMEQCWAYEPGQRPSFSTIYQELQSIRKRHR
Fyn, sequence (P06241 whole entry, looked up): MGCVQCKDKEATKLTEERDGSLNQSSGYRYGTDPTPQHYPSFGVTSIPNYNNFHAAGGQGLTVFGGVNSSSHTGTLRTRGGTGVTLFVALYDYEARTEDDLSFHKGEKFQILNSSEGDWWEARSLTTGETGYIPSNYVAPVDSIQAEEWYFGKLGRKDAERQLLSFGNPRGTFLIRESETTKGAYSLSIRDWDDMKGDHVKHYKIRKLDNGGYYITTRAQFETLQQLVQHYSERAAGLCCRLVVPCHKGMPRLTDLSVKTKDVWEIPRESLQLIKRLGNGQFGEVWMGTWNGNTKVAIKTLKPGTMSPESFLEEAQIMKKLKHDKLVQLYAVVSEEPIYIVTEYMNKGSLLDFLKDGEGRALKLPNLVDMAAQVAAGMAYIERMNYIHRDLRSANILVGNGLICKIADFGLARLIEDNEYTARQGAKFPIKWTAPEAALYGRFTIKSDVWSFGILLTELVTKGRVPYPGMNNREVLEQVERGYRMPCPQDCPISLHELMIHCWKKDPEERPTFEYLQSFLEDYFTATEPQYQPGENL

Sequence | SH2 binding enrichment (Grb2 SH2) | SH2 binding enrichment (SHP2-C SH2) | SH2 binding enrichment (c-Src SH2) | phosphorylation enrichment (Hck) | phosphorylation enrichment (c-Src) | phosphorylation enrichment (Jak2) | phosphorylation enrichment (EPHB1) | phosphorylation enrichment (Fes) | phosphorylation enrichment (Fyn) | phosphorylation enrichment (EPHB2) | phosphorylation enrichment (FGFR1) | phosphorylation enrichment (AncSZ) | phosphorylation enrichment (MERTK) | phosphorylation enrichment (FGFR3) | phosphorylation enrichment (Fer (mouse)) | phosphorylation enrichment (c-Abl (mouse))
TLNVRYESVQA [CEACAM7_Y236] | 0.9 | 1.52 | 7.18 | 0.487 | 0.415 | 0.755 | 0.44 | 0.745 | 0.434 | 0.415 | 0.451 | 0.757 | 0.371 | 0.617 | 0.59 | 0.504
TLQNMYGCDVG [HLA-B_Y123_S121N] | 1.01 | 0.765 | 0.643 | 0.625 | 0.601 | 0.989 | 0.702 | 1.2 | 0.586 | 0.581 | 0.545 | 0.886 | 0.446 | 0.669 | 0.64 | 0.756
TLSGIYQYNIA [FOXL2_Y81_I84N] | 0.817 | 1.07 | 1.33 | 4.79 | 6.54 | 0.951 | 1.82 | 0.963 | 4.61 | 1.15 | 0.752 | 1.32 | 9.86 | 0.701 | 13.1 | 1.06
TNDRLYLRSLE [MTM1_Y71_Y68D] | 0.855 | 0.6 | 0.616 | 0.443 | 0.535 | 0.937 | 0.514 | 0.978 | 0.458 | 0.452 | 0.438 | 0.881 | 0.376 | 0.503 | 0.411 | 0.651
TNRSFYFKPSL [NUP153_Y382_V381F] | 1.04 | 0.774 | 0.806 | 0.533 | 0.491 | 3.54 | 0.646 | 0.993 | 0.428 | 0.555 | 0.954 | 0.988 | 2.6 | 0.63 | 0.406 | 1.35
TPSGNYVACGG [GNB1_Y111_A106T] | 1.14 | 1.25 | 1.73 | 0.488 | 0.783 | 0.602 | 0.771 | 0.8 | 0.447 | 0.704 | 0.555 | 0.614 | 0.516 | 0.436 | 0.415 | 0.677
TPTYPYLLPKS [PLD2_Y580] | 0.768 | 0.899 | 0.62 | 0.441 | 0.581 | 0.639 | 0.29 | 0.599 | 0.452 | 0.349 | 0.63 | 0.527 | 0.564 | 0.505 | 0.286 | 0.564
TRSFKCLLLSM [NF1_Y491_Y491C_YF] | 1.11 | 0.787 | 0.912 | 0.492 | 0.4 | 1.09 | 0.551 | 1.08 | 0.474 | 0.581 | 0.531 | 0.969 | 0.444 | 0.609 | 0.496 | 0.713
TSQSQYFSFRE [CCDC170_Y323] | 1.15 | 0.999 | 0.796 | 1.72 | 4.89 | 1.29 | 0.315 | 0.891 | 3.07 | 0.368 | 1.62 | 0.745 | 0.818 | 1.49 | 0.461 | 0.604
TTICKYSTPME [GUCY2C_Y839] | 0.924 | 0.967 | 1.05 | 0.413 | 0.474 | 0.756 | 0.395 | 0.801 | 0.35 | 0.488 | 0.608 | 0.798 | 0.446 | 0.567 | 0.351 | 0.63
TTKGAYSLSIR [YES1_Y194] | 1.36 | 0.434 | 0.792 | 0.445 | 0.567 | 0.614 | 0.369 | 0.681 | 0.406 | 0.414 | 0.49 | 0.656 | 0.548 | 0.395 | 0.383 | 0.669
TTPGPYRSIFF [MPG_Y71_YF] | 0.997 | 3.79 | 0.688 | 0.521 | 0.728 | 0.626 | 0.493 | 0.923 | 0.514 | 0.546 | 0.551 | 1.07 | 0.663 | 1.07 | 0.368 | 0.706
TVMGLYQKSSL [MYH7_Y609_V606M] | 0.84 | 1.13 | 0.377 | 0.573 | 0.563 | 0.707 | 0.657 | 0.797 | 0.404 | 0.516 | 0.412 | 0.824 | 0.601 | 0.618 | 0.527 | 0.525
TYAVSYLPDMS [FLNC_Y1602_T1599A] | 0.809 | 0.95 | 0.674 | 0.732 | 0.811 | 0.924 | 0.559 | 0.763 | 0.589 | 0.785 | 0.428 | 0.867 | 1.6 | 0.576 | 0.575 | 0.963
VAFLYYKSIGP [ADGRL4_Y302_V300L] | 0.771 | 0.633 | 0.341 | 0.625 | 0.392 | 1.44 | 0.78 | 1.54 | 0.45 | 0.776 | 0.531 | 1.21 | 0.389 | 1.09 | 0.589 | 1.43
VASMFYTLVIP [OR8K3_Y277_I275M] | 1.22 | 1.13 | 0.783 | 0.667 | 1.38 | 1.51 | 1.13 | 1.14 | 0.661 | 0.82 | 2.79 | 1.96 | 5.7 | 2.37 | 3.5 | 0.691
VCDALYPPGPP | 0.863 | 0.675 | 0.62 | 0.288 | 0.443 | 0.73 | 0.465 | 0.794 | 0.306 | 0.329 | 0.421 | 0.779 | 0.282 | 0.467 | 0.489 | 0.766

Sequence | SH2 binding enrichment (Grb2 SH2) | SH2 binding enrichment (SHP2-C SH2) | SH2 binding enrichment (c-Src SH2) | phosphorylation enrichment (Hck) | phosphorylation enrichment (c-Src) | phosphorylation enrichment (Jak2) | phosphorylation enrichment (EPHB1) | phosphorylation enrichment (Fes) | phosphorylation enrichment (Fyn) | phosphorylation enrichment (EPHB2) | phosphorylation enrichment (FGFR1) | phosphorylation enrichment (AncSZ) | phosphorylation enrichment (MERTK) | phosphorylation enrichment (FGFR3) | phosphorylation enrichment (Fer (mouse)) | phosphorylation enrichment (c-Abl (mouse))
VDDEIYFFRKP [PBRM1_Y1289_YF] | 0.75 | 0.661 | 0.466 | 5.24 | 5.57 | 1.25 | 0.693 | 1.4 | 6.18 | 0.635 | 1.32 | 2.12 | 0.796 | 1.32 | 0.652 | 1.35
VDFQPYRKHKF [TEX37_Y28_YF] | 0.991 | 0.87 | 0.844 | 0.451 | 0.377 | 0.479 | 0.403 | 0.639 | 0.45 | 0.32 | 0.401 | 0.553 | 0.472 | 0.587 | 0.463 | 0.595
VDSNPYSHLMA [UBA5_Y53_R55H] | 0.813 | 1.15 | 1.59 | 0.891 | 0.862 | 0.577 | 0.48 | 0.631 | 0.639 | 0.481 | 0.418 | 0.669 | 0.518 | 0.489 | 1.25 | 0.504
VDTGVYAVPPP [BCAR1_Y410_S407T] | 0.775 | 0.602 | 0.556 | 7.67 | 4.89 | 0.827 | 8.36 | 0.799 | 8.6 | 20.2 | 1.28 | 2.39 | 9.22 | 1.14 | 5.77 | 20.7
VFGVSYDEFRF [CFTR_Y512_I507V_YF] | 0.984 | 1.09 | 0.859 | 1.25 | 2.83 | 1.4 | 0.578 | 1.13 | 1.13 | 0.577 | 0.452 | 1.09 | 0.799 | 0.736 | 1.98 | 0.823
VGQRPYRPLPE [REEP3_Y170_Q171R] | 0.957 | 0.68 | 0.59 | 0.4 | 0.471 | 0.67 | 0.391 | 0.637 | 0.492 | 0.557 | 0.482 | 0.584 | 0.473 | 0.519 | 0.482 | 0.683
VGRVGYVSGWG [HP_Y280] | 0.809 | 0.854 | 0.606 | 0.415 | 0.507 | 0.821 | 0.4 | 0.792 | 0.456 | 0.514 | 0.427 | 0.781 | 0.406 | 0.56 | 0.395 | 0.807
VHLYAYDWISI [BEST1_Y227_G222V] | 1.48 | 1.42 | 1.18 | 1.83 | 1.44 | 1.33 | 7.2 | 3.05 | 1.18 | 5.88 | 5.73 | 2.32 | 8.36 | 4.71 | 13 | 0.865
VHSGTYQVTVR [MYBPC3_Y1043] | 0.725 | 0.64 | 0.567 | 0.738 | 0.561 | 0.48 | 0.521 | 0.586 | 0.448 | 0.489 | 0.404 | 0.593 | 0.409 | 0.391 | 0.435 | 0.442
VICRRYLVMQR [IL3RA_Y328] | 0.816 | 0.416 | 0.354 | 0.487 | 0.342 | 0.894 | 0.456 | 1.05 | 0.595 | 0.69 | 0.786 | 1.24 | 0.531 | 0.74 | 0.46 | 0.618
VKALKYKSMKI [ITGA11_Y1098_L1093V] | 1.29 | 1.23 | 1.14 | 0.31 | 0.306 | 0.434 | 0.32 | 0.507 | 0.329 | 0.331 | 0.369 | 0.396 | 0.276 | 0.405 | 0.327 | 0.472
VKPENDRRLDI [VHL_Y175_Y175D] | 1.12 | 0.718 | 0.584 | 0.43 | 0.356 | 0.692 | 0.44 | 0.789 | 0.43 | 0.438 | 0.37 | 0.675 | 0.531 | 0.539 | 0.43 | 0.535
VMAVAYRLAEQ [HK1_Y461_T457M] | 1.26 | 1.03 | 0.685 | 0.445 | 0.463 | 1.04 | 0.619 | 1.06 | 0.431 | 0.496 | 0.463 | 0.972 | 0.46 | 0.676 | 0.491 | 0.708
VQQVIYATRAL [MYH7_Y422_G425R] | 0.652 | 1.06 | 0.518 | 8.57 | 7.24 | 0.598 | 0.434 | 0.684 | 9.04 | 0.505 | 0.468 | 0.663 | 0.711 | 0.534 | 0.57 | 14.1
VRALTYCDLHK [KCNH2_Y827] | 0.885 | 0.968 | 0.715 | 0.582 | 0.392 | 0.605 | 0.603 | 0.874 | 0.499 | 0.704 | 0.452 | 0.74 | 0.453 | 0.591 | 0.531 | 0.656
VRFMAYTDETF [F8_Y450] | 0.734 | 0.719 | 0.498 | 0.487 | 0.433 | 1.2 | 0.657 | 1.19 | 0.516 | 0.612 | 0.608 | 1.04 | 0.456 | 0.746 | 0.494 | 0.789
